{
  "source": "patent US20090041783A1",
  "about": "(MOCHIDA PHARMACEUTICAL, published 2009)",
  "key": {"[1]": {"target": "T1, human GPVI extracellular region-human Fc fusion protein (hGPVI-hFc) (human)", "T1 construct": "Expressed in COS-1, purified on Protein A; also called GPVI-HHH-hFc; hGPVIHHH-hFc", "test": "ELISA on immobilised hGPVI-hFc, anti-human mu-chain detection"}, "[2]": {"target": "T2, human platelet membrane glycoprotein VI (GPVI) on human platelets (human, UniProt Q9HCN6 21-339)", "T2 construct": "whole, on cells", "T2 sequence (looked up)": "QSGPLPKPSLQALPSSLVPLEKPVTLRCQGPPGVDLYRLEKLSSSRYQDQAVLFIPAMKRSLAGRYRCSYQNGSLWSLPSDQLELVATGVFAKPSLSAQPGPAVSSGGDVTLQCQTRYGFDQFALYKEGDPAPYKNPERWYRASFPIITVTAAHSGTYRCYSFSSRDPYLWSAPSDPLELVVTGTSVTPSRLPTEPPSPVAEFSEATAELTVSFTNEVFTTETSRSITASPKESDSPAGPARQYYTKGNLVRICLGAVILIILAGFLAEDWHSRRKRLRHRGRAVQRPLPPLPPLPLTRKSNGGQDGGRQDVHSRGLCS", "test": "flow cytometry on human platelets, 3-4 µg/mL antibody, anti-human IgM-FITC", "procedure": "Cynomolgus monkey and human PRPs prepared by the method described in 18-1 of EXAMPLE 18 were diluted with FACS buffer to make the platelet concentration 3.75×10⁸ cells/mL. To the diluted PRP, cF1232-37-2 (IgM) or cF1232-43-3 (IgM) prepared in the above 29-2 was added at the final concentration of 3-4 μg/mL, and stood at 25° C. for 30 minutes. After incubation, the platelet was washed with FACS buffer. Subsequently, after adding anti-human IgM-FITC (BD Biosciences Pharmingen) and standing at room temperature for 30 minutes, the platelet was washed with FACS buffer and the fluorescence intensity of the platelet was measured with flow cytometer CYTOMICS FC500 (BECKMAN COULTER). As a result, it was confirmed that both antibodies of cF1232-37-2 (IgM) and cF1232-43-3 (IgM) bind to the monkey and the human platelet."}},
  "data": [
    {"binder": "mouse/human chimeric IgM-type F1232-37-2, cF1232-37-2 (IgM) (antibody, Heavy chain: V region of cF1232-37-2 with human mu-chain constant region (pTK-2820); the CDRs of both clones are printed identical; Human kappa constant region) VH: VQLQQSGPELVRPGESVKISCKGSGYTFTDYAIHWVKLSHAKSLEWIGVISIYYDDTNYNQKFKGKATMTVDKSSSTAYLELARLTSEDSAIYYCARRRDSSGPYAMDYWGQGTSVTVSS VL: DIVLTQSPASLAVSLGQRATISCRASESVDSYGNSFMHWYQQKPGQPPKLLIYRASNLESGIPARFSGSGSRTDFTLTINPVEADDVATYYCQQSNEDPYTFGGGTKLEIKRADAA not shown", "values": [
      {"measurement": "binding result", "setting": "[1]", "result": "binds"},
      {"measurement": "binding result", "setting": "[2]", "result": "binds"}
    ]}
  ]
}
